Values quoted from earlier work as cited in article PMC7650819.

Experiments:
[1] = biological target: thrombin (human plasma) (Homo sapiens) (UniProt P00734+P00734); assay: literature value; details: AIR; ABB: 50 mM Tris-HCl, 140 mM NaCl, 1 mM MgCl2, 1% BSA, 0.05% Triton X-100, pH 7.4, overnight at 4 °C; aptamers refolded in 5 mM Tris-HCl, 1 M NaCl, 0.5 mM …
TGF-β1 (Homo sapiens) = TGF-β1 (Homo sapiens) (UniProt P01137); assay: literature value; details: DNA with phosphorothioates at positions marked by asterisks: CGCTCGGCTTCACGAGATTCGTGTC*GTTGTGTC*C*TGTA*C*C*C*GC*C*TTGA*C*C*A*GTC*A*C*TC*TA*GA*GC*A*TC*C*GGA*C*TG …; AIR; ABB: 50 mM Tris-HCl, 140 mM NaCl, 1 mM MgCl2, 1% BSA, 0.05% Triton X-100, pH 7.4, overnight at 4 °C; aptamers refolded in 5 mM Tris-HCl, 1 M NaCl, 0.5 mM E
Chain of TGF-β1 (Homo sapiens) (P01137 279-390): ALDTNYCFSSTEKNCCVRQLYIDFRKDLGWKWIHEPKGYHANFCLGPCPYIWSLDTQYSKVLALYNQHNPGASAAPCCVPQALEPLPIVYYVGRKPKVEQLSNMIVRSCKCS

Sequence	Kd [1] [nM]	Kd (TGF-β1 (Homo sapiens)) [nM]
TTTTTTTTTTTTTTTTTTTTAGTCCGTGGTAGGGCAGGTTGGGGTGACT [Thrombin 29-mer aptamer]	0.5	
TTTTTTTTTTTTTTTTTTTTCGCTCGGCTTCACGAGATTCGTGTCGTTGTGTCCTGTACCCGCCTTGACCAGTCACTCTAGAGCATCCGGACTG [TGF-β1 thioaptamer]		90
TTTTTTTTTTTTTTTTTTTTGGTTGGTGTGGTTGG [Thrombin 15-mer aptamer]	100	
